Results as given in US10501748B2, “Methods and compositions for integration of an exogenous sequence within the genome of plants” (Dow AgroSciences LLC, priority 2013, dated 2019).

B1: pDAS000132: plasmid donor DNA, 750-bp homology arms, A-genome, introduces S653N mutation; SEQ ID NO:65 (nucleic acid)
DNA: TGCAAGCAGGTCCAAGATTGTGCACATTGACATTGACCCAGCTGAGATTGGCAAGAACAAGCAGCCACATGTCTCCATTTGTGCAGATGTTAAGCTTGCTTTACAGGGGTTGAATGCTCTATTAAATGGGAGCAAAGCACAACAGGGTCTGGATTTTGGTCCATGGCACAAGGAGTTGGATCAGCAGAAGAGGGAGTTTCCTCTAGGATTCAAGACTTTTGGCGAGGCCATCCCGCCGCAATATGCTATCCAGGTACTGGATGAGCTGACAAAAGGGGAGGCGATCATTGCTACTGGTGTTGGGCAGCACCAGATGTGGGCGGCTCAGTATTACACTTACAAGCGGCCACGGCAGTGGCTGTCTTCGTCTGGTTGGGGGCAATGGGATTTGGGTTACCAGCTGCAGCTGGCGCTGCTGTGGCCAACCCAGGTGTTACAGTTGTTGACATTGATGGAGATGGTAGTTTCCTCATGAACATTCAGGAGTTGGCATTGATCCGTATTGAGAACCTCCCTGTGAAGGTGATGATATTGAACAACCAGCATCTGGGAATGGTGGTGCAATGGGAGGATAGGTTTTACAAGGCCAATCGGGCGCACACATACCTTGGCAACCCAGAAAATGAGAGTGAGATATATCCAGATTTTGTGACGATTGCTAAAGGATTCAACGTTCCGGCAGTTCGTGTGACGAAGAAGAGCGAAGTCACTGCAGCAATCAAGAAGATGCTTGAGACCCCAGGGCCATACTTGTTGGATATCATCGTCCCGCATCAGGAGCACGTGCTGCCTATGATCCCAAATGGTGGTGCTTTCAAGGACATGATCATGGAGGGTGATGGCAGGACCTCGTACTGAAATTTCGACCTACAAGACCTACAAGTGTGACATGCGCAATCAGCATGGTGCCCGCGTGTTGTATCAACTACTAGGGGTTCAACTGTGAACCATGCGTTTTCTAGTTTGCTTGTTTCATTCATATAAGCTTGTGTTACTTAGTTCCGAACCCTGTAGCTTTGTAGTCTATGCTCTCTTTTGTAGGGATGTGCTGTCATAAGATATCATGCAAGTTTCTTGTCCTACATATCAATAATAAGTACTTCCATGGAATAATTCTCAGTTCTGTTTTGAATTTTGCATCTTCTCACAAACAGTGTGCTGGTTCCTTTCTGTTACTTTACATGTCTGCCGTGTCCGGTTATGACATAATGACCGATGGAGGGTGGTCAGCAGGTTTTAGACGGGGAGTTGAAACTTTTTTTTGGGGGGAAGAAATCTGAATACAGTTGGGAGGAAAGATAAAAGCATATACCTTGATTAATTTATTGAGCCCAATATCCAGCCTAATTTATCAAGCAATAGGCAGTGTAGGGTGTTGGC
modifications: pDAS000132
B2: pDAS000433: donor molecule backbone for first transgene stack, S653N; SEQ ID NO:71 (nucleic acid)
DNA: CCACTCTTGCCCTACACGACACTGAAGACCTTATGATTCCAAACGGCGGCGCCTTCAAGGACATGATCATGGAGGGTGATGGCAGGACCTCGTACTGAAATTTCGACCTACAAGACCTACAAGTGTGACATGCGCAATCAGCATGGTGCCCGCGTGTTGTATCAACTACTAGGGGTTCAACTGTGAACCATGCGTTTTCTAGTTTGCTTGTTTCATTCATATAAGCTTGTGTTACTTAGTTCCGAACCCTGTAGCTTTGTAGTCTATGCTCTCTTTTGTAGGGATGTGCTGTCATAAGATATCATGCAAGTTTCTTGTCCTACATATCAATAATAAGTACTTCCATGGAATAATTCTCAGTTCTGTTTTGAATTTTGCATCTTCTCACAAACAGTGTGCTGGTTCCTTTCTGTTCGCTGACGCCCTCCTCGACTCCATCCCCATGGTCGCCATCACGGGCCAGGTCCCCCGCCGCATGATCGGTAGCGACTTCGTGGGCGAGGAAAGCCTTTCGTCCAAGGTGGTCCCTCCTCGCAATCTTGTTGGATGGTGAATATTATAAAAGCCTGCCCTTCTCGCGGGTAAGACTCCCGCCCATCCAGGATGAGGATGACCAGCCTTTTGCAGTTTATCCACTAGGGACAGGATTGCATCCTGCCGAAACCCTGCCAAGCTTGAGGTAGCCTCCAATTTGACGGTGCCGCCAGCGACGCCGTCTGGAACTGTCCTTTTTGAGGACCACTCCGTTTGTCTAGAGGTACCTGGAGATCATGACATTAAGGATGACCAGTTCGTAAAGGTCCTGCGGTGTCTATTGCTTTTCATAGGTTAATAAGTGTTTGCTAGACTGTGGTGAAAGGCCAAGACTCCCGCCCATCTCTCTATGCCCGGGACAAGTGCCACCCCACAGTGGGGCAGGATGAGGATGACCAAAGACTCCCGCCCATCTCACTAGGGACAGGATTGGCCTTTTGCAGTTTATCTCTATGCCCGGGACAAGTGTATCCGAAGTAAATAAAACCATCGGACTCTCGTATAAGACTGTCGACTCGACCGGCCGACGCATAGGTTCATTTGAAGCTGCTATTCTATTTAAATTGAAACTCGGACGGTAGCAGTGTGGTATGAGGTCTTCAGCACACTCGGTAACTCCAGTCAC
modifications: pDAS000433

How the values were obtained:
[1] = tested on: endogenous AHAS genes (three homoeologous copies); assay: transient assay of ZFN-mediated HR-directed AHAS editing in biolistically transfected scutella of immature zygotic embryos; format: cell-based, Triticum aestivum; conditions: for Editing Frequency (ppm): HR-directed, scutella
Source text: Donor DNA designs were based on a plasmid DNA vector containing 750-bp homology arms (i.e. sequence identical to the endogenous AHAS gene) flanking each side of the target cleavage site for ZFNs 29732 and 29730. A plasmid DNA vector was designed for each of the three wheat sub-genomes: pDAS000132 (FIG. 3), pDAS000133 (FIG. 4) and pDAS000134 (FIG. 5) were designed to the A-, B- and D-genome, respectively (SEQ ID NO:65, SEQ ID NO:66, and SEQ ID NO:67). Each plasmid DNA vector was designed to introduce an S653N ([…]) mutation as a genomic modification conferring tolerance to imidazolinone class herbicides at the target homoeologous copy of the endogenous AHAS gene by ZFN-mediated HR-directed DNA repair. Two additional plasmid DNA constructs were also designed to target the D-genome. The first plasmid DNA, pDAS000135 (SEQ ID NO: 68) (FIG. 6), was identical to pDAS000134 except that it contained two additional (synonymous) single nucleotide point mutations, one each located at 15-bp upstream and downstream of the S653N mutation.
Seedlings of the donor wheat line were grown in an environment controlled growth room maintained at 18/16° C. (day/night) and a 16/8 hour (day/night) photoperiod with lighting provided at […]. Wheat spikes were collected at 12-14 days post-anthesis and were surface sterilized by soaking for 1 min in 70% (v/v) ethanol. The spikes were threshed and the immature seeds were sterilized for 15 min in 17% (v/v) bleach with gentle shaking, followed by rinsing at least three times with sterile distilled water. The embryos were aseptically isolated from the immature seeds under a dissecting microscope. The embryonic axis was removed using a sharp scalpel and discarded. The scutella were placed into a 9 cm PETRI™ dish containing osmotic MS (E3 maltose) medium, with the uncut scutellum oriented upwards. A total of 20 scutella were plated onto each 9 cm PETRI™ dish. The prepared embryos were pre-cultured in the dark at 26° C. for a minimum of 4 h before transfection using biolistics-mediated DNA delivery.
Gold particles for biolistic-mediated DNA delivery were prepared by adding 40 mg of 0.6 micron colloidal gold particles (BioRad) to 1 mL of sterile water in a 1.5 mL microtube. The gold particles were resuspended by vortexing for 5 min. To prepare sufficient material for 10 bombardments, a 50 μL aliquot of the gold particle suspension was transferred to a 1.5 mL microtube containing 5 μg of DNA resuspended in 5 μL of sterile water. Following thorough mixing by vortexing, 50 μL of 2.5 M CaCl2 and 20 μL of 0.1 M spermidine were added to the microtube, with thorough mixing after the addition of each reagent. The DNA-coated gold particles were pelleted by centrifugation for 1 min at maximum speed in a bench top microfuge. The supernatant was removed and 1 mL of 100% ethanol was added to wash and resuspend the gold particles. The gold particles were pelleted by centrifugation, as described above, and the supernatant discarded. The DNA-coated gold particles were resuspended in 110 μL of 100% ethanol and maintained on ice. Following a brief vortex, 10 μL of the gold particle solution was placed centrally onto a macro-carrier membrane and allowed to air dry.
The PDS-1000/HE PARTICLE GUN DELIVERY SYSTEM™ (BioRad) was used to transfect the scutella of immature zygotic wheat embryos by biolistic-mediated DNA delivery. Delivery of the DNA-coated gold particles was performed using the following settings: gap 2.5 cm, stopping plate aperture 0.8 cm, target distance 6.0 cm, vacuum 91.4-94.8 kPa, vacuum flow rate 5.0 and vent flow rate 4.5. The scutella of immature zygotic wheat embryos were bombarded using a 900 psi rupture disc. Each PETRI™ dish containing 20 scutella was bombarded once. The bombarded scutella were incubated at 26° C. in the dark for 16 h before being transferred onto medium for callus induction. The scutella were cultured on callus induction medium in the dark at 26° C. for 7 d. […]

[2] = tested on: endogenous AHAS locus in scutella of cv. Bobwhite MPB26RH; assay: biolistics-mediated transformation for first sequential transgene stack with IMAZAMOX or BASTA selection; format: cell-based, Triticum aestivum; conditions: donor with pDAB109350 at 5:1
Description: A total of 55,468 scutella of immature zygotic embryos from the donor wheat line cv. Bobwhite MPB26RH were prepared for biolistics-mediated DNA delivery, as described previously. DNA-coated gold particles were prepared with the formulations as described above. For transfections performed using the linear double-stranded donor DNA derived from “QA_pDAS000434” or pDAS000433, the donor DNA was mixed at a 5:1 molar ratio with plasmid DNA for pDAB109350 (encoding ZFNs 29732 and 29730). Transfections performed using pDAS000143 were performed using gold particles that were coated only with plasmid DNA for pDAS000143.
Biolistic-mediated transfections were performed as described previously. Following bombardment, the transfected scutella were incubated at 26° C. in the dark for 16 h before being transferred onto medium for callus induction.
Two different chemical selection strategies were used to enrich for regenerated wheat plants with an integrated linear double-stranded donor molecule. […] The purpose of the second chemical selection strategy was to allow the frequency of precise (on-target) versus random (off-target) donor integration to be quantified, as well as the frequency of perfect and imperfect integration at the endogenous AHAS loci. […]

| Molecule | Editing Frequency (ppm) ([1]; wheat sub-genome A, ZFN 29732-2A-29730, donor-to-ZFN molar ratio 5:1) | Editing Frequency (ppm) ([1]; wheat sub-genome A, ZFN 29732-2A-29730, donor-to-ZFN molar ratio 10:1) | Editing Frequency (ppm) ([1]; wheat sub-genome A, ZFN n/a (donor only), average of three biological replicates) | Editing Frequency (ppm) ([1]; wheat sub-genome B, ZFN 29732-2A-29730, ratio 5:1) | Editing Frequency (ppm) ([1]; wheat sub-genome B, ZFN 29732-2A-29730, ratio 10:1) | Editing Frequency (ppm) ([1]; wheat sub-genome B, ZFN n/a (donor only)) | Editing Frequency (ppm) ([1]; wheat sub-genome D, ZFN 29732-2A-29730, ratio 5:1) | Editing Frequency (ppm) ([1]; wheat sub-genome D, ZFN 29732-2A-29730, ratio 10:1) | Editing Frequency (ppm) ([1]; wheat sub-genome D, ZFN n/a (donor only)) | molecular evidence for ZFN-mediated HR-directed editing in all three homoeologous copies of endogenous AHAS ([1]; co-transfected with pDAB109350, scutella (pDAS000131 and pDAS000134 also SEC protoplasts)) | wheat plants recovered ([2]; BASTA selection) | wheat plants with AHAS herbicide tolerance phenotype recovered ([2]; IMAZAMOX selection) |
| --- | --- | --- | --- | --- | --- | --- | --- | --- | --- | --- | --- | --- |
| B1 | 2,353 ppm | 1,800 ppm | 5 | 42 | 30 | 0 | 110 | 61 | 0 | strong molecular evidence | – | – |
| B2 | – | – | – | – | – | – | – | – | – | – | 1,652 | No wheat plants |
